Where no end group is shown, it is not given here. Compound 12 = dye made from 2-amino-6-nitrobenzothiazole and 3-(1'-oxo-3'-carboxypropylamino)-N,N-dimethylaniline
Biological target: HIV-1 protease (Human immunodeficiency virus type 1 group M subtype B, UniProt P04585)
Assay: Fluorogenic HIV protease assay with FRET peptides (FIG. 3)
Assay type: biochemical
Conditions: FRET peptide substrate, purified enzyme
Description: Inhibition of HIV-1 protease represents an important avenue for AIDS therapy. Currently combination chemotherapy of reverse transcriptase inhibitors and protease inhibitors have shown to suppress the replication of HIV-1 and extend the life expectancy of HIV-1-infected individuals. The following FRET peptides of the instant disclosure are screened for developing a fluorogenic HIV protease assay. The enzyme assays are done with purified enzymes. Absorption spectra were taken with Hitachi U-3010. Endpoint fluorescence assays are run on either BMG NovoStar or Gemini SpectraMax (Molecular Devices). Enzyme kinetic assays are run on FlexStation (Molecular Devices). […] FRET Peptides #6 and #7 might be used for monitoring HIV protease activity in combination with a flow cytometer.
All the above FRET peptides are synthesized using the standard FMOC chemistry. Some of the TQ peptides were prepared using FMOC-Lys (Compound 12)-OH. For the post-labeling of the premade peptides, Dye NHS esters were used for labeling N-terminal amino or ε-amino group of lysine residue. Dye maleimides were used for labeling the SH group of cysteine residues.

## Arg-Glu(5-TAMRA)-Val-Ser-Phe-Asn-Phe-Pro-Gln-Ile-Thr-Lys(Compound 12)-Arg ({Arg-Glu(5-TAMRA)}-VSFNFPQITK(Compound 12)R) [FRET peptide #2]
  response to HIV-1 protease: excellent response

Reference: patent US20100311184A1, “AZO HETEROCYCLIC DYES AND THEIR BIOLOGICAL CONJUGATES” (AAT BIOQUEST, INC., priority 2009, published 2010)
